Assay results taken from the DeepSol protein solubility set.

Assay: soluble on expression in E. coli; label from the status in PepcDB or PDB records

Row | Sequence | soluble on expression in E. coli
1 | SNYLDQMEEYDKVEEISRKHKHNCFCIQEVVSGLRQPVGALHSGDGSQRLFILEKEGYVKILTPEGEIFKEPYLDIHKLVQSGIKGGDERGLLSLAFHPNYKKNGKLYVSYTTNQERWAIGPHDHILRVVEYTVSRKNPHQVDLRTARVFLEVAELHRKHLGGQLLFGPDGFLYIILGDGMITLDDMEEMDGLSDFTGSVLRLDVDTDMCNVPYSIPRSNPHFNSTNQPPEVFAHGLHDPGRCAVDRHPTDININLTILCSDSNGKNRSSARILQIIKGKDYESEPSLLEFKPFSNGPLVGGFVYRGCQSERLYGSYVFGDRNGNFLTLQQSPVTKQWQEKPLCLGTSGSCRGYFSGHILGFGEDELGEVYILSSSKSMTQTHNGKLYKIVDPKRPLMPEECRATVQPAQTLTSECSRLCRNGYCTPTGKCCCSPGWEGDFCRTAKCEPACRHGGVCVRPNKCLCKKGYLGPQCEHHHHHH | soluble
2 | MGSDKIHHHHHHMTFLFFQPSSNIIKPYALMDLDDTLFQTQRKIDAWELPTTEPENLVCATVNKQGEPLSFMSQRQAAFFNWLLASTELIAVTARDRLEIKRVKLLFNSWQVLTHGAVILTSDGEPLSTWQQHMYNALIPLQDKINQLTEWVNSYSKESDRTHNDLKLTPHTDTFIDSELTIYLAIKHTQKDHQALAELATQLPTLIPDFDAHFYVHVNANNLAILPHAVHKRHAVQFLLEQHLDHQRPSFGFGDSLADLPFLQLLDWYGMPNHGQLHTQQ | not soluble
3 | MEKLAIGVDVGTTQAKAVAFQANGTVVASSYVRYPLIQETEGMAEQDPETLFQAVVNCIRTVTQQVKNQPIGLISFASAMHGLIAMDAQGRPLTQVITWADTRASDYAEALKETPAAQLFYQLTGMPVHPMAPLYKIRWLQENQPAVAQSAAKFIGIKDYIFYRFFGEYWTDYSSASGMGLFNIHTRQWETSILAYLSIEEEQLPKVAPSTFIFPALAPSWQEMLGVEEETVLVLGGADGPLSNLGLGALGMGVATLTVGTSGALRYIVEEPFLHPQGETFCFALDEQHWVIGGASSNGAVALDWASQTIFAEERQQAIQNGTNLYDPIMAKIATVPAGANGLLFHPYLLGERAPLWNAEASASFIGLRKNHHAGHLARAVVEGICFNLKTILEDLKQLGGPVQEIRATGGFADSPVFRQIMADVLGETLSFTDSTEASALGAVLLGWQGLGQLPNLQAAAQQVLIHETVTPRADQLLVYQELYPVFQETQQVLAQSYQKLAEFRK | not soluble
4 | GIDPFTMAAYTIVKEEESPIAPHRLFKALVLERHQVLVKAQPHVFKSGEIIEGDGGVGTVTKITFVDGHPLTYMLHKFDEIDAANFYCKYTLFEGDVLRDNIEKVVYEVKLEAVGGGSKGKITVTYHPKPGCTVNEEEVKIGEKKAYEFYKQVEEYLAANPEVFA | soluble
5 | MIKLIATDMDGTFLAEDGTYNQEQLAALLPKLAEKGILFAVSSGRSLLAIDQLFEPFLDQIAVIAENGSVVQYRGEILFADMMTKEQYTEVAKKILANPHYVETGMVFSGQKAAYILKGASEEYIQKTKHYYANVKVINGFEDMENDAIFKVSTNFTGHTVLEGSDWLNQALPYATAVTTGFDSIDIILKEVNKGFGMEHLCQALGIKKAETIAFGDNFNDYQMLEFAGRAIATENARPEIKVISDQVIGHCNDGAVLTYLKGLV | not soluble
6 | MDAQYDISFADVEKAHINIRDSIHLTPVLTSSILNQLTGRNLFFKCELFQKTGSFKIRGALNAVRSLVPDALERKPKAVVTHSSGNHGQALTYAAKLEGIPAYIVVPQTAPDCKKLAIQAYGASIVYCEPSDESRENVAKRVTEETEGIMVHPNQEPAVIAGQGTIALEVLNQVPLVDALVVPVGGGGMLAGIAITVKALKPSVKVYAAEPSNADDCYQSKLKGKLMPNLYPPETIADGVKSSIGLNTWPIIRDLVDDIFTVTEDEIKCATQLVWERMKLLIEPTAGVGVAAVLSQHFQTVSPEVKNICIVLSGGNVDLTSSITWVKQAERPASYQSVSVHHHHHH | soluble
7 | MHPRETIRETFVALIKAAKTVAGDNVFNMRDFNLFIETMPAINISTQSETIEDGHDFGLRRRVLTVDVECYATCEDGARFVDQLAWEVEEIFYANPNLNNTVETCRLQNIAFAFGDNGSLALHGAILTFDVTHITNIPCPDEGKATVGVVEPLVGFKPETGMGNKDKYHKIEGDHVRATR | not soluble
8 | GPGSMVTPEQAALIEGAFRSMDRDGTGLVRLEDIFRVFDDSRHPRVRDGELAPAATRDMLMHQFGATAQAHGGVSFDVFMRFHERMAEDAAVAKVNDKELFLTDTIIGVWRLGTLLQPTLIRPLFPVNVRPSGLYATQYMSLVWVDEVAGPGSFVVHVVRDVVRPIFSRGDLPPQLRGMFAYPTELAGMKIIEERLQIATQRWLDFVWEYEEGKHAAVPGIISARVDPDTLPQYLRDMIVEHDVAKAIPSLFFVPTSVAVNPMYKRSSEEYGYGVPEEVKRMSRWKDLTYSGQACGLIYHGRVGKFTRERLNAPVQDVASAMNI | not soluble
9 | MGSDKIHHHHHHMLVKKISPRGYCYGVVDAMKLAQQAALNDNLPRPIHILGMIVHNAHVTREFERMGVLTVDGPDRLEALETIKEGTVIFTAHGISPAVYARAAEKKLTVVDATCPDVTRTHDLIRSVVADDYEVIYVGKHGHPEPEGAVGVAPEHVHLIEKVEDIEALPAHLADKKIIVTNQTTMSQWDVQALMEHVRKKYPHVEVHNEICNATQVRQEAVAEQAGDCDLVIVVGDPRSNNSNRLAQVSFDIAATPAHRIGDLTELDLSWLDGVNQVGVTSGASTPTPITKKVIDFLQQYDPADISTHDKTPFLELRRILPKVKIL | not soluble
10 | SEEDAGNGGFRKRMRASDEEGKGDSRDGISLDHTIENEEAETKLVASDEMELSIAQILDKIESFTQTVSNLLETGKTMLKELSNEFEERLIMIHKEHVEKWQDEIKELRLLDASNEETTSLLHNARYLIQNPSIEQ | soluble
11 | MGSDKIHHHHHHMIKIGAHMPISKGFDRVPQDTVNIGGNSFQIFPHNARSWSAKLPSDEAATKFKREMKKHGIDWENAFCHSGYLINLASPKDDIWQKSVELLKKEVEICRKLGIRYLNIHPGSHLGTGEEEGIDRIVRGLNEVLNNTEGVVILLENVSQKGGNIGYKLEQLKKIRDLVDQRDRVAITYDTCHGFDSGYDITKKEGVEALLNEIESLFGLERLKMIHLNDSKYPLGAAKDRHERIGSGFIGEEGFAVFFSFKEIQEVPWILETPGGNEEHAEDIKKVFEIIEKFGIEVD | not soluble
12 | MGSSHHHHHHSSGENLYFQGHMNVLVIGRGGREHAIAWKAAQSPLVGKLYVAPGNPGIADVAELVHIDELDIEALVQFAKQQAIDLTIVGPEAPLASGIVDRFMAEGLRIFGPSQRAALIEGSKAFAKELMKKYGIPTADHAAFTSYEEAKAYIEQKGAPIVIKADGLAAGKGVTVAQTVEEALAAAKAALVDGQFGTAGSQVVIEEYLEGEEFSFMAFVNGEKVYPLAIAQDHKRAYDGDEGPNTGGMGAYSPVPQISDEMMDAALEAILRPAAKALAAEGRPFLGVLYAGLMATANGPKVIEFNARFGDPEAQVVLPRLKTDLVEAVLAVMDGKELELEWTDEAVLGVVLAAKGYPGAYERGAEIRGLDRISPDALLFHAGTKREGGAWYTNGGRVLLLAAKGETLAKAKEKAYEQLAAIDCDGLFYRRDIGRRAIERASAAYTRMKGR | soluble
13 | MAHHHHHHMPRDTHVLRFKVLTVECAALPDGQQYTVMYHRGNSNRSTPCYTAQGGVINFASMPEGAAVVHFKAGHGGGRFAPKYIRFMIEEYTRGMPRRLVGETEADCTQVLKDYGASGSGILTVVFRLYGTTAKMRIAVLVYPEHAPPLSFDGLIDPSEVAAPLPTQAVKVMSRGEAMMILMGLETLLERRRAMKAEGQSLPQSREEKKLAELEKRRKALVGSEGLATEVIKTRCEEVVAVQYTALARKHRNNFIGQTAAYLREMAMLAGEDFIGDDGDSSGDTVLEQLNRVNRSIEEVEMQVKKLEEEQAALRRIQHKVDVMAELTVSLDKVAALQQKMQVLKESRTALTEAMKKQAAKKNTPLAREVTAINTRIAALNAEQQQMAPRIQHMVAVAASHVVKWARSKNPPELDTKSCIDSLHETGGNARNPVDDLFSDAGKPKTSKEQSMLDDVQRKQVVEALKGLETTTAPLSTRSPTSASSSSGHRTPRDLFADAGLPSMGDFSDTKPKEEETATKRKGDTSTTPLHEDPLKPSGLGVDMFSAKPAPAAASNVPAGLPSMNDFMRSSTASRQQSAQPTFDFGSILQTSSVSPQMGGGFVLEPQPSEAAASSFAAAAPSAVSGAYQTKDYPYYDEMDDFTVPPDAADSKNYGAVEITGGIFSFQDDTSSPAYVAPRPTFDFGPSSGGDDRPSGVGVTVSPAETFSFGGGAADELSTNNPRNSSDNPYTGITNLPTYNFSS | soluble
14 | GPGSMAASQLIATRFTDLLAEGNIESALKYIANDVVYNTWLGVVYGKDNVEVFLRDNVRFVHHGRNYNRWKQVQHSLDASLKQFTVNDVSGYDESALDVRSYYDSEGYDSQGYATFERDGTIASHAKFAVFHVKVKETVVLRNNKVVLVNVSKRA | not soluble
15 | MLGRGEGMRLEEARIAVDEALSAYRRCVEAEVEEYGPEYERVTFMEYEAPAPDPCAEAFLRLVEAVRAYEAAGGSREDLDLGRERKRVYEALDKG | soluble
16 | MQKLINSVQNYAWGSKTALTELYGIANPQQQPMAELWMGAHPKSSSRITTANGETVSLRDAIEKNKTAMLGEAVANRFGELPFLFKVLCAAQPLSIQVHPNKRNSEIGFAKENAAGIPMDAAERNYKDPNHKPELVFALTPFLAMNAFREFSDIVSLLQPVAGAHSAIAHFLQVPNAERLSQLFASLLNMQGEEKSRALAVLKAALNSQQGEPWQTIRVISEYYPDDSGLFSPLLLNVVKLNPGEAMFLFAETPHAYLQGVALEVMANSDNVLRAGLTPKYIDIPELVANVKFEPKPAGELLTAPVKSGAELDFPIPVDDFAFSLHDLALQETSIGQHSAAILFCVEGEAVLRKDEQRLVLKPGESAFIGADESPVNASGTGRLARVYNKL | not soluble
17 | MKVIIIGGETTAYYLARSMLSRKYGVVIINKDRELCEEFAKKLKATIIHGDGSHKEILRDAEVSKNDVVVILTPRDEVNLFIAQLVMKDFGVKRVVSLVNDPGNMEIFKKMGITTVLNLTTLITNTVEALIFPDEFSSIIPLEQGIEFLSVNVEEDSPVVGKKLKDLPLPRDSIIAAIVRGGVLVVPRGDTEILSGDKLYVIVSAEAKETVEETLLGR | soluble
18 | SSLYRLFQSSKRPFASFSAPLVRFTNSRCVSAVLSRKETAPSSIYGNRVSRVSGFGALDIRSLNFSTKSSQINDAGSIDQTLMQSMELKIKEQLNAESVTVTDMSGDGRHVCINVVSSAFEGQSAVNRQRMVYKAIWEELQNVVHAVDQMTTKTPSEV | soluble
19 | MEKYLPILRNSPFFKGLSDNEILSILHCVNATVISKERASYIFRAGDSTEVMGLVVSGCVLVMQEDLWGHRNILSKCHAGDFFGEPYAASLGAVLNISVAADEDCEIIFLNVQRLLVTCQTACEHHQKLIRNLVSVLANKILILNDKITHVGKRTTRDKLLSYLSAESIRRSSLSFDIPFDRQQLADYLCIDRAAMSTEISKLQKEGFIKTNRNHFELIACNETDLQADK | not soluble
20 | MGSDKIHHHHHHMKLVTISGPPSSGKTAVLAGVIRAMMASGLKVGALKYDCLATNDDDVFRAIGVPVQTGLSGNLCPDHYFVSNIEECLDWGIREGFDFLLSESAGLCNRCAPHIKGVLAVCVIDNLMGATTPKKIGPMLKYADIVVITKGDIVSQAEREVFAFQVRRANPRAKIMHVNGITGQGAGELASQFLLAPETTCLDGSRLRFSMPAALCSYCLGETRIGMEFQLGNVKKIKMSEEPAR | not soluble
21 | SLNPLDSFKSQVEANVTGLGADKDIQALSRIWSRETNRNGYTYNYSWLGRPIIQYPQDIMAMQELIWSIQPDLIIETGIAHGGSLIFSASMLELNAISGGPQDAEVLGIDIDIRQHNREAIEAHPMVKRISMIQGSSIAPEIIEQVKAKAEGKQKILVCLDSNHTHDHVLAELEAYAPLTSVGSYCVVFDTVVEDLPDEMFGDRPWGVGNNPKTAVWEYLKTHPEFEIDKSIQHKLLITVAPDGYLKRLG | soluble
